This note sets out measurements from publication doi:10.1101/2025.02.22.639629 (bioRxiv, 2025).

This series concerns the molecule itself. The series is described as follows: SEC-MALS.

B1: mature IL-37 (Lys53 N-terminus) (ligand, human, UniProt Q9NZH6 53-218, looked up)
chain: KNLNPKKFSIHDQDHKVLVLDSGNLIAVPDKNYIRPEIFFALASSLSSASAEKGSPILLGVSKGEFCLYCDKDKGQSHPSLQLKKEKLMKLAAQKESARRPFIFYRAQVGSWNMLESAAHPGWFICTSCNCNEPVGVTDKFENRKHIEFSFQPVCKAEMSPSEVSD
B1: the stoichiometry N (in general, the number of molecules, sites or subunits per partner or assembly) was determined as 2.

B2: IL-37 R158A (ligand, human, UniProt Q9NZH6 53-218, looked up)
chain: KNLNPKKFSIHDQDHKVLVLDSGNLIAVPDKNYIRPEIFFALASSLSSASAEKGSPILLGVSKGEFCLYCDKDKGQSHPSLQLKKEKLMKLAAQKESARRPFIFYAAQVGSWNMLESAAHPGWFICTSCNCNEPVGVTDKFENRKHIEFSFQPVCKAEMSPSEVSD
Turning to B2, the “stoichiometry N” value turned out to be 2.
